# Measurements published in paper PMC11437124 (Nature Communications, 2024).
# Read-outs that look alike come from different tables or passages of the source.
# Tests used:
# [1] = biological target: T1, human TREM2 extracellular domain (ECD) (Homo sapiens, UniProt Q9NZC2)
# [2] = biological target: T1, human TREM2 extracellular domain (ECD); test: SPR
# [3] = biological target: human TREM2 on live cells (Homo sapiens, UniProt Q9NZC2); test: flow cytometry on cells
# Chain of human TREM2 on live cells (Q9NZC2 19-230): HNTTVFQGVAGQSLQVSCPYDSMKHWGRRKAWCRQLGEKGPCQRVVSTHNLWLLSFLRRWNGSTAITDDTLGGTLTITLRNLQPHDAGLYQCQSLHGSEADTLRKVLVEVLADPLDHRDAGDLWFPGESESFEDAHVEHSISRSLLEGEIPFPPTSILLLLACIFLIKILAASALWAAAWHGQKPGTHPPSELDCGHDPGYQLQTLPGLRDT
# T1 sequence (Q9NZC2 19-174): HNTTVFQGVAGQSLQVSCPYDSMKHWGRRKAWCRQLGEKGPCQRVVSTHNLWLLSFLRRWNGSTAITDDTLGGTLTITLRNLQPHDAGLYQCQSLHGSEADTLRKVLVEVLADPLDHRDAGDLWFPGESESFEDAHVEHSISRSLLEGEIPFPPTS
Binder,binding result [1],further results
"R18-12-25 (antibody, V domains shown) VH: AVQLVESGGGLVRPQESLKISCAASGFTFRDTAMYWVRQAPGKGLEWVARIRTKPNDYATYFADSVKGRFTISRDDSKSMVYLQMDTLKTEDTAMYYCTAPINNWDWFAYWGQGTLVTVSS VL: DIVMTQSPSSLAVSAGETVTIDCKSSQSLLYSGNQKTYLAWYQQKPGQSPKLLIYWASTRQSGVPDRFIGSGSGTDFTLTISSVQAEDLAIYYCQQYYDTPLTFGSGTKLEIK",binds,
"R19-11-41 (antibody, V domains shown) VH: AVQLVESGGGLVQPKESLKISCAASGFTFSNAAMYWVRQAPGKGLEWVARIRTKPNNYATYYADSVKGRFTISRDDSKSMVYLQMDNLKTEDTAMYYCTAEGITTWFDYWGQGVMVTVSS VL: DIVMTQSPSSLAVSAGETVTIDCKSSQSLLYSGNQKTYLAWYQQKPGQSPKLLIYWASTRQSGVPDRFIGSGSGTDFTLTISSVQAEDLAIYYCQQYYDTPLTFGSGTKLEIK",binds,
"R19-11-42 (antibody, V domains shown) VH: AVQLVESGGGLVHPQESLKISCLASGLSFSSAAMYWVRQVPGKGLEWLARIRTKPNNYATFYADSVKGRFTISRDDSKSMVFLQMDDLNTEDTAIYYCTASVFTVAFEYWGQGVMVTVSS VL: DIVMTQSPSSLAVSAGETVTIDCKSSQSLLYSGNQKTYLAWYQQKPGQSPKLLIYWASTRQSGVPDRFIGSGSGTDFTLTISSVQAEDLAIYYCQQYYDTPLTFGSGTKLEIK",binds,
"R19-11-38 (antibody, V domains shown) VH: AVQLVESGGGLVQPKESLKISCAASGFTFSNAAMYWVRQAPGKGLEWVARIRTKPNNYATYYADSVKGRFTISRDDSKSMVYLQMDNLKTEDTAMYYCTAAFYGYYFDYWGQGVMVTVSS VL: DIVMTQSPSSLAVSAGETVTIDCKSSQSLLYSGNQKTYLAWYQQKPGQSPKLLIYWASTRQSGVPDRFIGSGSGTDFTLTISSVQAEDLAIYYCQQYYDTPLTFGSGTKLEIK",binds,
"R18-13-31 (antibody, V domains shown) VH: AVQLVESGGGLVQPIESLKISCAASGFTFTNAAMYWVRQAPGKGLEWIARIRTKPNDYATYYADSVKGRFTISRDDSESVVYLQMDNLKTEDTATYYCTAAWDYYSSAFDYWGQGVMVTVSS VL: DIVMTQSPSSLAVSAGETVTIDCKSSQSLLYSGNQKTYLAWYQQKPGQSPKLLIYWASTRQSGVPDRFIGSGSGTDFTLTISSVQAEDLAIYYCQQYYDTPLTFGSGTKLEIK",binds,
"R18-13-35 (antibody, V domains shown) VH: AVQLVESGGGLVQPRESLKISCAASGFTFSNAAMYWVRQAPGKGLEWVARIRTKANNYATNYADSLKGRFIISRDDSKSVVYLQMGNLKPEDTAMYYCTAGDTMGPHWFVYWGQGTLVTVSS VL: DIVMTQSPSSLAVSAGETVTIDCKSSQSLLYSGNQKTYLAWYQQKPGQSPKLLIYWASTRQSGVPDRFIGSGSGTDFTLTISSVQAEDLAIYYCQQYYDTPLTFGSGTKLEIK",binds,
"R18-13-32 (antibody, V domains shown) VH: AVQLVESGGGLVQPKESLKISCAASGFTFSYAAMYWVRQAPGKGLEWVARIRSKPNNYATYYADSVKGRFTISRDDSKSMVYLQMDNLKTEDTAMYYCTAPYYYDGSPFEYWGQGVMVTVSS VL: DIVMTQSPSSLAVSAGETVTIDCKSSQSLLYSGNQKTYLAWYQQKPGQSPKLLIYWASTRQSGVPDRFIGSGSGTDFTLTISSVQAEDLAIYYCQQYYDTPLTFGSGTKLEIK",binds,
"R18-13-29 (antibody, V domains shown) VH: AVQLVESGGGLVQPKESLKVSCAASGFTFSNADIYWVRQAPGKGLEWVARIRTKPNNYATYYGDSVKGRFTISRDDSKSMVYLQMDNLKTEDTAMYYCTAGEGLWVNYFDYWGQGVMVTVSS VL: DIVMTQSPSSLAVSAGETVTIDCKSSQSLLYSGNQKTYLAWYQQKPGQSPKLLIYWASTRQSGVPDRFIGSGSGTDFTLTISSVQAEDLAIYYCQQYYDTPLTFGSGTKLEIK",binds,
"R19-11-40 (antibody, V domains shown) VH: AVQLVESGGGLVQPKESLKISCAASGFTFSNAAMFWVRQAPGEGLEWVARIRTKPNSYATYYADSVKGRFTISRDDSKSMVYLQMDNLKTEDTAMYYCTADYPGMGFDSWGQGVMVTVSS VL: DIVMTQSPSSLAVSAGETVTIDCKSSQSLLYSGNQKTYLAWYQQKPGQSPKLLIYWASTRQSGVPDRFIGSGSGTDFTLTISSVQAEDLAIYYCQQYYDTPLTFGSGTKLEIK",binds,
"R18-13-28 (antibody, V domains shown) VH: AVQLVESGGGLVQPKESLKISCAASGFTFSNAAMYWVRQAPGKGLEWVARIRTKTNNYATNYADSVKGRFTISRDDSKSMVYLQMDNLKTEDTAMYYCSAARGGWYLWLDYWGQGVMVTVAS VL: DIVMTQSPSSLAVSAGETVTIDCKSSQSLLYSGNQKTYLAWYQQKPGQSPKLLIYWASTRQSGVPDRFIGSGSGTDFTLTISSVQAEDLAIYYCQQYYDTPLTFGSGTKLEIK",binds,
"R19-11-37 (antibody, V domains shown) VH: AVQLVESGGGLVQPKESLKISCAASGFTFSNAAMYWVRQAPGKGLEWVARIRTKPNNYATYYADSVKGRFTISRDDSKSMVYLQMDNLKTEDTAMYYCIASRYGYDFDYWGQGVMVTVSS VL: DIVMTQSPSSLAVSAGETVTIDCKSSQSLLYSGNQKTYLAWYQQKPGQSPKLLIYWASTRQSGVPDRFIGSGSGTDFTLTISSVQAEDLAIYYCQQYYDTPLTFGSGTKLEIK",binds,
"R18-13-30 (antibody, V domains shown) VH: AVQLVESGGGLVQPKESLKVSCAASGFTFSHAAMYWVRQAPGKGLEWVARITTEPNNYATNYADSVKGRFTISRDDSKSMVFLQMDNMKTEDTAMYYCTAEVRVYPYYFDYWGQGVMVTVSS VL: DIVMTQSPSSLAVSAGETVTIDCKSSQSLLYSGNQKTYLAWYQQKPGQSPKLLIYWASTRQSGVPDRFIGSGSGTDFTLTISSVQAEDLAIYYCQQYYDTPLTFGSGTKLEIK",binds,
"R19-11-36 (antibody, V domains shown) VH: AVQLVESGGGLVQPKESLKISCAAAGFTFTSAAMYWVRQAPGKGLEWIARIRTKADNIATNYADSVKGRFTISRDDSKNMVYLQMDDLKTEDTAMYYCTAGITTGGFEYWGQGVMVTVSS VL: DIVMTQSPSSLAVSAGETVTIDCKSSQSLLYSGNQKTYLAWYQQKPGQSPKLLIYWASTRQSGVPDRFIGSGSGTDFTLTISSVQAEDLAIYYCQQYYDTPLTFGSGTKLEIK",binds,
"R18-13-27 (antibody, V domains shown) VH: AVQLVESGGGLVQPKESLKISCAASGFTFSNAAMYWVRQAPGKGLEWVARIRTKPNYHATYYADSVKGRFTISRDDSKSMVYLQMDNLKAEDTAIYYCAASVLYTADSLDYWGQGVMVTVSS VL: DIVMTQSPSSLAVSAGETVTIDCKSSQSLLYSGNQKTYLAWYQQKPGQSPKLLIYWASTRQSGVPDRFIGSGSGTDFTLTISSVQAEDLAIYYCQQYYDTPLTFGSGTKLEIK",binds,
"hu3.10C2 G106hD (antibody, V domains shown) VH: EVQLVESGGGLVQPGGSLKLSCATSGFPFSNVWMHWVRQASGKGLEWIAHIKAKSDNYATYYAESVKGRFTISRDDSKTTIYLQMNSLKTEDTAVYYCTDLDYWGQGTTVTVSS VL: DVVMTQSPLSLPVTPGEPASISCRSSRSLLTSKGITSLYWYLQKPGQSPQLLIYRMSNLASGIPDRFSGSGSGTDFTLKISRVEAEDVGVYYCAQFLVYPYTFGPGTKVEIK",,binding result [2]: binds
"hu3.10C2 G106hD/I107h insertion/D116hE (antibody, V domains shown) VH: EVQLVESGGGLVQPGGSLKLSCATSGFPFSNVWMHWVRQASGKGLEWIAHIKAKSDNYATYYAESVKGRFTISRDDSKTTIYLQMNSLKTEDTAVYYCTDILEYWGQGTTVTVSS VL: DVVMTQSPLSLPVTPGEPASISCRSSRSLLTSKGITSLYWYLQKPGQSPQLLIYRMSNLASGIPDRFSGSGSGTDFTLKISRVEAEDVGVYYCAQFLVYPYTFGPGTKVEIK",,binding result [2]: binds
"hu3.10C2 I107h insertion/D116hE (antibody, V domains shown) VH: EVQLVESGGGLVQPGGSLKLSCATSGFPFSNVWMHWVRQASGKGLEWIAHIKAKSDNYATYYAESVKGRFTISRDDSKTTIYLQMNSLKTEDTAVYYCTGILEYWGQGTTVTVSS VL: DVVMTQSPLSLPVTPGEPASISCRSSRSLLTSKGITSLYWYLQKPGQSPQLLIYRMSNLASGIPDRFSGSGSGTDFTLKISRVEAEDVGVYYCAQFLVYPYTFGPGTKVEIK",,binding result [2]: binds
"hu3.10C2 I107h insertion (antibody, V domains shown) VH: EVQLVESGGGLVQPGGSLKLSCATSGFPFSNVWMHWVRQASGKGLEWIAHIKAKSDNYATYYAESVKGRFTISRDDSKTTIYLQMNSLKTEDTAVYYCTGILDYWGQGTTVTVSS VL: DVVMTQSPLSLPVTPGEPASISCRSSRSLLTSKGITSLYWYLQKPGQSPQLLIYRMSNLASGIPDRFSGSGSGTDFTLKISRVEAEDVGVYYCAQFLVYPYTFGPGTKVEIK",,binding result [2]: binds
"hu3.10C2 D116hE (antibody, V domains shown) VH: EVQLVESGGGLVQPGGSLKLSCATSGFPFSNVWMHWVRQASGKGLEWIAHIKAKSDNYATYYAESVKGRFTISRDDSKTTIYLQMNSLKTEDTAVYYCTGLEYWGQGTTVTVSS VL: DVVMTQSPLSLPVTPGEPASISCRSSRSLLTSKGITSLYWYLQKPGQSPQLLIYRMSNLASGIPDRFSGSGSGTDFTLKISRVEAEDVGVYYCAQFLVYPYTFGPGTKVEIK",,binding result [2]: binds
"hu3.10C2 G106hD/D116hE (antibody, V domains shown) VH: EVQLVESGGGLVQPGGSLKLSCATSGFPFSNVWMHWVRQASGKGLEWIAHIKAKSDNYATYYAESVKGRFTISRDDSKTTIYLQMNSLKTEDTAVYYCTDLEYWGQGTTVTVSS VL: DVVMTQSPLSLPVTPGEPASISCRSSRSLLTSKGITSLYWYLQKPGQSPQLLIYRMSNLASGIPDRFSGSGSGTDFTLKISRVEAEDVGVYYCAQFLVYPYTFGPGTKVEIK",,binding result [2]: binds
"antibody 3.22B9 (antibody, V domains shown) VH: AVQVVESGGGLVQPKGSLKISCAVSGFTFSDAAMHWVRQAPGKGLEWVARIRTKPNSYATYYADSVKGRFIISRDDSKNMVYLQMDNLKIEDTAMYYCTAGTTTAPFDYWGQGVMVTVSS VL: DIVMIQSPSSVAVSAGETVTINCKSSQSLLYSGDHKNYLAWFQQKPGQSPKLLIYWASTRLSDVPDRVIGSGSGTDFTLTISSVQAEDLATYYCQQYYDTPLTFGSGTKVEIK",,binding result [3]: binds
